First the molecules themselves.
T1: TOP3β TOPO domain (1–612) (human, UniProt O95985 1-612)
T1 construct: human Topoisomerase IIIβ, topoisomerase (TOPO) domain, residues 1–612; also called TOP3β (1–612); catalytic domain of TOP3β; source: baculovirus-infected Sf9 cells, purified (Glutathione Sepharose, GST removed by HRV 3C protease, SEC); not shown: GST, N-terminal, cleaved
T1 sequence (looked up): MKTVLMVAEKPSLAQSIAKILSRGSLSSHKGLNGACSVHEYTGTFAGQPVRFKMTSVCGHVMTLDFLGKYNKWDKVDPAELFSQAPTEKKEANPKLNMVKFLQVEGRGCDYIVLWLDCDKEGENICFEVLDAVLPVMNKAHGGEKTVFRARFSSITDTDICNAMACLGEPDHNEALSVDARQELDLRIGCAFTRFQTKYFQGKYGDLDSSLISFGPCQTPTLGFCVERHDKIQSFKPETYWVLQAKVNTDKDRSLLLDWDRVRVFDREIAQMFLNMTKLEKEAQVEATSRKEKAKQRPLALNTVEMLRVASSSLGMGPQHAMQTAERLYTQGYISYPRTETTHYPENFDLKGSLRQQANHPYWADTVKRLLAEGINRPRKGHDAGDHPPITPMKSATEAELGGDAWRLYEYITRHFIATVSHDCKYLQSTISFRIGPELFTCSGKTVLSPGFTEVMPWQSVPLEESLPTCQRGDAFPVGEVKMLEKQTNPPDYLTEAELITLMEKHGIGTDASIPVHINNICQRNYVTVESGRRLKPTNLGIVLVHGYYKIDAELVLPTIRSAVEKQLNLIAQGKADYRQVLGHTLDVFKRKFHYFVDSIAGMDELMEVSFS

B1: TDRD3 OB-fold domain (48–171) (domain or fragment, human, UniProt Q9H7E2-3 48-171, looked up)
chain: IGKKFLPSDINSGKVEKLEGPCVLQIQKIRNVAAPKDNEESQAAPRMLRLQMTDGHISCTAVEFSYMSKISLNTPPGTKVKLSGIVDIKNGFLLLNDSNTTVLGGEVEHLIEKWELQRSLSKHN
notes: human TDRD3 OB-fold domain, residues 48–171; purification is described only for DUF–OB; also called TDRD3 OB-fold domain alone; source: E. coli Rosetta (DE3) (as told for DUF–OB)
B2: TDRD3 (1–161) of the TOP3β–TDRD3 complex (domain or fragment, human, UniProt Q9H7E2-3 1-161, looked up)
chain: MAQVAGAALSQAGWYLSDEGIEACTSSPDKVNVNDIILIALNTDLRTIGKKFLPSDINSGKVEKLEGPCVLQIQKIRNVAAPKDNEESQAAPRMLRLQMTDGHISCTAVEFSYMSKISLNTPPGTKVKLSGIVDIKNGFLLLNDSNTTVLGGEVEHLIEKW
notes: human TDRD3 DUF1767 and OB-fold domains; made as 1–171, cut by chymotrypsin at Trp161, deposited as 1–161; also called TDRD3 DUF–OB; source: E. coli Rosetta (DE3), purified; TDRD3 (1–171) mixed with TOP3β (1–612), trimmed with chymotrypsin, SEC; not shown: GST, N-terminal, cleaved

“And” between values parts separate entries of the source, which are not always exact repeats. Identical values can stand only once.

One experiment concerns the target T1, TOP3β TOPO domain (1–612). Kind of experiment: SEC; binding analysis using size-exclusion column chromatography (Supplementary Fig. 3a). The conditions noted are these: both partners purified.
Take B1: the binding result was “binds”.

A further experiment has as its target T1, TOP3β TOPO domain (1–612). Briefly: crystal structure; TOP3β (1–612)–TDRD3 (1–161) complex, 3.6 Å; sitting drop, 20 °C, 50 mM Na-cacodylate pH 6.2, 10 mM MgSO4, 1.7 M Li2SO4. The conditions noted are these: both partners purified.
With B2, the binding result is listed as “binds”.

The target of the next experiment is GST-TOP3β (1–612), wild type (human) (UniProt O95985). Kind of experiment: pull-down; GST-TOP3β (1–612) on Glutathione Sepharose FF, 0.2 μM TDRD3 protein (Fig. 3f left); same buffer, 4 °C, 2 hrs; Coomassie, densitometry.
Conditions: not given
The molecule “TDRD3 DUF–OB A80S/A81S (from UniProt Q9H7E2-3 1-161) (domain or fragment)” returned a percent of wild-type binding greater than 60%. The same measure, in the same setting: the value for “TDRD3 DUF–OB P82S (from UniProt Q9H7E2-3 1-161) (domain or fragment)” was greater than 60%; that for “TDRD3 DUF–OB P92S (from UniProt Q9H7E2-3 1-161) (domain or fragment)” was 50%; that for “TDRD3 DUF–OB P^82-GSGSGGS-A^90 (from UniProt Q9H7E2-3 1-161) (domain or fragment)” was 60%.

“TDRD3 DUF–OB V79S (from UniProt Q9H7E2-3 1-161) (domain or fragment)” showed a percent of wild-type binding greater than 60%. Turning to “TDRD3 DUF–OB V79S/P82S (from UniProt Q9H7E2-3 1-161) (domain or fragment)”, the percent of wild-type binding was determined as 30%.

For another experiment the target is unchanged. Briefly: pull-down; GST-TOP3β (1–612) on Glutathione Sepharose FF, 1.0 μM TDRD3 or RMI1 protein (Fig. 3f right, 4b); same buffer, 4 °C, 2 hrs; Coomassie, densitometry.
Conditions: not given
As for “TDRD3 DUF–OB A80S/A81Q/A90K/A91P/P92S (from UniProt Q9H7E2-3 1-161) (domain or fragment)”, the percent of wild-type binding stood at 80%. Same read-out and setting: the value for “TDRD3 DUF–OB V^79-SSGG-P^92 (from UniProt Q9H7E2-3 1-161) (domain or fragment)” was 40%.

A further experiment has the same target. Briefly: pull-down; GST-TOP3β (1–612) on Glutathione Sepharose FF, 0.5 μM TDRD3 or RMI1 protein (Fig. 3c, 4d, 4e); 20 mM Tris-Cl pH 7.4, 200 mM NaCl, 1 mM MgCl2, 5 mM β-mercaptoethanol, 0.1% Triton X-100, 4 °C, 2 hrs; Coomassie, densitometry.
Conditions: not given
Molecule “TDRD3 DUF–OB F111Y (from UniProt Q9H7E2-3 1-161) (domain or fragment)” returned a percent of wild-type binding greater than 70%. Consider “TDRD3 DUF–OB F139V (from UniProt Q9H7E2-3 1-161) (domain or fragment)”, for which the percent of wild-type binding was greater than 70%.

The molecule “TDRD3 DUF–OB R96M (from UniProt Q9H7E2-3 1-161) (domain or fragment)” returned a percent of wild-type binding greater than 70%.

Consider “TDRD3 DUF–OB R96M/F111Y (from UniProt Q9H7E2-3 1-161) (domain or fragment)”, for which the percent of wild-type binding was greater than 70%. “TDRD3 DUF–OB R96M/F139V (from UniProt Q9H7E2-3 1-161) (domain or fragment)” displayed a percent of wild-type binding greater than 70%. “TDRD3 DUF–OB R96M/V109M (from UniProt Q9H7E2-3 1-161) (domain or fragment)”: the percent of wild-type binding is greater than 70%. For the molecule “TDRD3 DUF–OB R96M/V109M/F139V (from UniProt Q9H7E2-3 1-161) (domain or fragment)”, the percent of wild-type binding was 35% and 30%. “TDRD3 DUF–OB V109M (from UniProt Q9H7E2-3 1-161) (domain or fragment)” came in with a percent of wild-type binding greater than 70%. The same measure, in the same setting: the value for “TDRD3 DUF–OB V109M/F111Y/F139V (from UniProt Q9H7E2-3 1-161) (domain or fragment)” was greater than 70%; that for “TDRD3-RMI1loop (from UniProt Q9H7E2-3 1-78; Q9H9A7 95-132; Q9H7E2-3 93-161) (domain or fragment)” was 70%.

(Values after PMC5296760, “Structural basis of the interaction between Topoisomerase IIIβ and the TDRD3 auxiliary factor” (Scientific Reports, 2017).)
